The values that follow come from patent publication US20260232827A1 (Zymeworks, published 2026).

One experiment addresses T1, human NaPi2c (human, UniProt Q8N130 1-599).
T1 construct: whole, on cells; also called Hu NaPi2c; SLC34A3
T1 sequence (looked up): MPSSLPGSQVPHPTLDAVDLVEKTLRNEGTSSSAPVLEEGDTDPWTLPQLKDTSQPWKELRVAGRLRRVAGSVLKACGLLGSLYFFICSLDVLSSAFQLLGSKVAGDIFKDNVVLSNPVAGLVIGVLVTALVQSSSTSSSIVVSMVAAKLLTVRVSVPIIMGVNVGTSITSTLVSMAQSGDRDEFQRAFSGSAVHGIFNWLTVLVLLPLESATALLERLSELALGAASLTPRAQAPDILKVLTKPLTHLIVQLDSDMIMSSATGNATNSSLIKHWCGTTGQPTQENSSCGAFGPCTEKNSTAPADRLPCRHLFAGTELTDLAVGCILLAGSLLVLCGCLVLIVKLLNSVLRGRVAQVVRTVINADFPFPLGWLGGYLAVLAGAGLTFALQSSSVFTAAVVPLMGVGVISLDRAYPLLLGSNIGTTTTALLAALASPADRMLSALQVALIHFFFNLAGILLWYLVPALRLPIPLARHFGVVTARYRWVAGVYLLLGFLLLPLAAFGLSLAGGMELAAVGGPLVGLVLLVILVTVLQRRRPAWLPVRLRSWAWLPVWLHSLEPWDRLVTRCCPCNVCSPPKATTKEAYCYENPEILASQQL
Nature of the experiment: flow cytometry on HEK293-6e cells transfected with human NaPi2c, 24 h at 4 C, anti-human IgG Fc AF647.

The target in experiment [1] is T2, Construct 6 (human NaPi2b del 317-333) (human, UniProt O95436 1-690).
T2 construct: also called CL_#29919
T2 sequence: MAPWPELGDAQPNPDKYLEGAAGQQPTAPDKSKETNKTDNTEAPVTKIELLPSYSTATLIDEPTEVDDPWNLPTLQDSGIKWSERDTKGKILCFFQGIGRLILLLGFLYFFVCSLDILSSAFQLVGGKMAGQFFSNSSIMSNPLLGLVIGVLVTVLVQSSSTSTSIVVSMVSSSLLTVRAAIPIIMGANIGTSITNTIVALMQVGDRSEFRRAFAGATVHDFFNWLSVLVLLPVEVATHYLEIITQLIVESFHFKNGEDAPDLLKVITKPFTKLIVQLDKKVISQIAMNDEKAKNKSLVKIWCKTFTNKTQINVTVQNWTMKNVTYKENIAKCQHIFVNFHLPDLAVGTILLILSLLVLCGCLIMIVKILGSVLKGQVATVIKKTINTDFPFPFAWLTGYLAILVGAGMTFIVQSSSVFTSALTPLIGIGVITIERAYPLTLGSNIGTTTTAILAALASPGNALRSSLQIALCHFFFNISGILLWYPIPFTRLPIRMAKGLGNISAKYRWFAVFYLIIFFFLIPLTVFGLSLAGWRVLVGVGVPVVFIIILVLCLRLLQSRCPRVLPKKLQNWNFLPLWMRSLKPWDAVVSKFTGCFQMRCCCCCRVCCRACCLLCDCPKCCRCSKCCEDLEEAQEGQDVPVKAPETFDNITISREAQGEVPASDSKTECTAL
Nature of the experiment: flow cytometry, transfected HEK293-6e cells, antibody 20 nM.

Experiment [2] addresses T3, Construct 7 (human NaPi2b del 317-326) (human, UniProt O95436 1-690).
T3 construct: also called CL_#29921
T3 sequence: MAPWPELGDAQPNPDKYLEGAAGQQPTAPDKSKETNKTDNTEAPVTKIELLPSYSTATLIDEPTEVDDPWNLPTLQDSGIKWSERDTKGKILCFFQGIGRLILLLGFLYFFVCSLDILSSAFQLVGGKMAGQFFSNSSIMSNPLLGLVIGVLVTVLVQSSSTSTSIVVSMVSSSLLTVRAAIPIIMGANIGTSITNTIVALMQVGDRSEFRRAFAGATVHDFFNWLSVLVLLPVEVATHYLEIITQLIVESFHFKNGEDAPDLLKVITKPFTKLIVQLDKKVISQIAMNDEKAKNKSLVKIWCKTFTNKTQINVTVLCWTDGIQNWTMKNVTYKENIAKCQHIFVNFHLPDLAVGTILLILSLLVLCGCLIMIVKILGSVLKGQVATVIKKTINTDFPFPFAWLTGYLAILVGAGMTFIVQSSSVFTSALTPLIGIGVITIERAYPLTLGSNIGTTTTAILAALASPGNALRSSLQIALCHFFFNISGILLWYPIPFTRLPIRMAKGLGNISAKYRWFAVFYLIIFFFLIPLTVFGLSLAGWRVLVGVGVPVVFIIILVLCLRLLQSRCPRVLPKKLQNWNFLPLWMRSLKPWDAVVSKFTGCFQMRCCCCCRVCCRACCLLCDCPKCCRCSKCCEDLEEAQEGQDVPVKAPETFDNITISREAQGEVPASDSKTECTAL
The experiment is described as above.

Experiment [3] concerns the target T4, Full length human NaPi2b (sodium-dependent phosphate transporter 2B, SLC34A2) (human, UniProt O95436 1-690).
T4 construct: also called huNaPi2b; CL_#13432
T4 sequence: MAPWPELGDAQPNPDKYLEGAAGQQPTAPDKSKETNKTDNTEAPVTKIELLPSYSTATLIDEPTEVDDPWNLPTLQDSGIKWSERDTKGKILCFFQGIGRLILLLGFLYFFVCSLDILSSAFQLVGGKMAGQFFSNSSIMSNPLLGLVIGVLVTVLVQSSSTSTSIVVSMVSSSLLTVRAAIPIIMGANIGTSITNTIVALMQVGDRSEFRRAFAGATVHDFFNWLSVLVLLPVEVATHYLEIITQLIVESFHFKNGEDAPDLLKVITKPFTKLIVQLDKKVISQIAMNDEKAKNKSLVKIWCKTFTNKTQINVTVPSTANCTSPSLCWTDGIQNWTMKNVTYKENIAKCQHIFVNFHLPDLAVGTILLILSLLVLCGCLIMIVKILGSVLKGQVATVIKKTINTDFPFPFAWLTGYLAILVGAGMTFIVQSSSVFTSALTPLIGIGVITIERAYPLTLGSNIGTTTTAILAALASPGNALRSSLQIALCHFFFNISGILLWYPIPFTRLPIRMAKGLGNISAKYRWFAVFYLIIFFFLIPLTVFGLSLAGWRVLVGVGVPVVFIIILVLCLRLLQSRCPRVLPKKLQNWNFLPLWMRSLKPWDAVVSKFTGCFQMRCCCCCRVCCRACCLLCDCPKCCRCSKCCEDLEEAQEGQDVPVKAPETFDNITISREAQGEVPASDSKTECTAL
The description is as above.

The target in experiment [4] is T5, Construct 1 (chimeric human NaPi2b, swap in NaPi2c in 239-259) (human).
T5 construct: also called CL_#29914
The description is as above.

B1: v18993 (lifastuzumab), reference anti-NaPi2b antibody (antibody, human IgG1, kappa)
heavy 1: GEVQLVESGGGLVQPGGSLRLSCAASGFSFSDFAMSWVRQAPGKGLEWVATIGRVAFHTYYPDSMKGRFTISRDNSKNTLYLQMNSLRAEDTAVYYCARHRGFDVGHFDFWGQGTLVTVSSASTKGPSVFPLAPSSKSTSGGTAALGCLVKDYFPEPVTVSWNSGALTSGVHTFPAVLQSSGLYSLSSVVTVPSSSLGTQTYICNVNHKPSNTKVDKKVEPKSCDKTHTCPPCPAPELLGGPSVFLFPPKPKDTLMISRTPEVTCVVVDVSHEDPEVKFNWYVDGVEVHNAKTKPREEQYNSTYRVVSVLTVLHQDWLNGKEYKCKVSNKALPAPIEKTISKAKGQPREPQVYVYPPSRDELTKNQVSLTCLVKGFYPSDIAVEWESNGQPENNYKTTPPVLDSDGSFALVSKLTVDKSRWQQGNVFSCSVMHEALHNHYTQKSLSLSPG
heavy 2: not shown
light: GDIQMTQSPSSLSASVGDRVTITCRSSETLVHSSGNTYLEWYQQKPGKAPKLLIYRVSNRFSGVPSRFSGSGSGTDFTLTISSLQPEDFATYYCFQGSFNPLTFGQGTKVEIKRTVAAPSVFIFPPSDEQLKSGTASVVCLLNNFYPREAKVQWKVDNALQSGNSQESVTEQDSKDSTYSLSSTLTLSKADYEKHKVYACEVTHQGLSSPVTKSFNRGEC
As to B1, in the experiment with human NaPi2c, the binding result is on record as “no binding (tested: 200 nM)”.

B2: v18992 (MX35), reference anti-NaPi2b antibody (antibody, human IgG1, kappa)
heavy 1: GQVQLVQSGAEVVKPGASVKMSCKASGYTFTGYNIHWVKQAPGQGLEWIGAIYPGNGDTSYKQKFRGRATLTADTSTSTVYMELSSLRSEDSAVYYCARGETARATFAYWGQGTLVTVSSASTKGPSVFPLAPSSKSTSGGTAALGCLVKDYFPEPVTVSWNSGALTSGVHTFPAVLQSSGLYSLSSVVTVPSSSLGTQTYICNVNHKPSNTKVDKKVEPKSCDKTHTCPPCPAPELLGGPSVFLFPPKPKDTLMISRTPEVTCVVVDVSHEDPEVKFNWYVDGVEVHNAKTKPREEQYNSTYRVVSVLTVLHQDWLNGKEYKCKVSNKALPAPIEKTISKAKGQPREPQVYVYPPSRDELTKNQVSLTCLVKGFYPSDIAVEWESNGQPENNYKTTPPVLDSDGSFALVSKLTVDKSRWQQGNVFSCSVMHEALHNHYTQKSLSLSPG
heavy 2: not shown
light: GDIQMTQSPSSLSASVGDRVTITCSASQDIGNFLNWYQQKPGKTVKVLIYYTSSLYSGVPSRFSGSGSGTDYTLTISSLQPEDFATYYCQQYSKLPLTFGQGTKLELKRTVAAPSVFIFPPSDEQLKSGTASVVCLLNNFYPREAKVQWKVDNALQSGNSQESVTEQDSKDSTYSLSSTLTLSKADYEKHKVYACEVTHQGLSSPVTKSFNRGEC
On to B2, for which, in the experiment with human NaPi2c, the binding result is on record as “no binding (tested: 200 nM)”.

B3: v38591 (humanized anti-NaPi2b antibody, wild-type Fc) (antibody, human IgG1, kappa)
heavy: not shown
light: DVQMTQSPSSLSASVGDRVTITCRASQDVYSYLNWYQQKPGKAVKLLIYYTSRLQSGVPSRFSGSGSGTDYTLTISSLQPEDFATYYCQQYNIFPWTFGQGTKLEIKRTVAAPSVFIFPPSDEQLKSGTASVVCLLNNFYPREAKVQWKVDNALQSGNSQESVTEQDSKDSTYSLSSTLTLSKADYEKHKVYACEVTHQGLSSPVTKSFNRGEC
notes: also called v38591 Wild-type; H1L2
As for B3, in the experiment with human NaPi2c, the binding result is recorded as “no binding (tested: 200 nM)”.

B4: v38591 (humanized anti-NaPi2b antibody, H1L2, wild-type Fc, heavy chains with C-terminal lysine) (antibody, human IgG1, kappa)
heavy: not shown
light: DVQMTQSPSSLSASVGDRVTITCRASQDVYSYLNWYQQKPGKAVKLLIYYTSRLQSGVPSRFSGSGSGTDYTLTISSLQPEDFATYYCQQYNIFPWTFGQGTKLEIKRTVAAPSVFIFPPSDEQLKSGTASVVCLLNNFYPREAKVQWKVDNALQSGNSQESVTEQDSKDSTYSLSSTLTLSKADYEKHKVYACEVTHQGLSSPVTKSFNRGEC
notes: Full-size human IgG1/kappa antibody; also called v38591 (wild-type Fc)
For the molecule B4, the “Background-Subtracted AF647 Mean Fluorescence Intensity” value in experiment [1] was -7 MFI; in experiment [2], 981 MFI; in experiment [3], 1420 MFI; in experiment [4] it was 1860 MFI.

B5: v22277 (palivizumab, anti-RSV negative control, heterodimeric Fc) (antibody, human IgG1, kappa)
heavy 1: GQVTLRESGPALVKPTQTLTLTCTFSGFSLSTSGMSVGWIRQPPGKALEWLADIWWDDKKDYNPSLKSRLTISKDTSKNQVVLKVTNMDPADTATYYCARSMITNWYFDVWGAGTTVTVSSASTKGPSVFPLAPSSKSTSGGTAALGCLVKDYFPEPVTVSWNSGALTSGVHTFPAVLQSSGLYSLSSVVTVPSSSLGTQTYICNVNHKPSNTKVDKKVEPKSCDKTHTCPPCPAPELLGGPSVFLFPPKPKDTLMISRTPEVTCVVVDVSHEDPEVKFNWYVDGVEVHNAKTKPREEQYNSTYRVVSVLTVLHQDWLNGKEYKCKVSNKALPAPIEKTISKAKGQPREPQVYVYPPSRDELTKNQVSLTCLVKGFYPSDIAVEWESNGQPENNYKTTPPVLDSDGSFALVSKLTVDKSRWQQGNVFSCSVMHEALHNHYTQKSLSLSPG
heavy 2: not shown
light: GDIQMTQSPSTLSASVGDRVTITCKSQLSVGYMHWYQQKPGKAPKLLIYDTSKLASGVPSRFSGSGSGTEFTLTISSLQPDDFATYYCFQGSGYPFTFGGGTKLEIKRTVAAPSVFIFPPSDEQLKSGTASVVCLLNNFYPREAKVQWKVDNALQSGNSQESVTEQDSKDSTYSLSSTLTLSKADYEKHKVYACEVTHQGLSSPVTKSFNRGEC
notes: also called neg control
For the molecule B5, the binding result in the experiment with human NaPi2c is recorded as “no binding (tested: 200 nM)”.
